The values that follow come from publication PMC7241714, “Structure-function investigation of 3-methylaspartate ammonia lyase reveals substrate molecular determinants for the deamination reaction” (PLoS ONE, 2020).

The target in data set [1] is T1, 3-methylaspartate ammonia lyase (CaMAL) (Citrobacter amalonaticus, UniProt O66145).
T1 construct: C-terminal His-tag
Description: steady-state inhibition kinetics of 3-methylaspartate deamination (UV assay). It is filed as biochemical.

Substrate in data set [2]: C[C@H](C(=O)O)[C@H](N)C(=O)O
The experiment in a line: purified protein. To be noted: Mg2+; pH 9.0; 30.0 °C. It is filed as biochemical, Carboxydothermus hydrogenoformans.

Substrate in data set [3]: C[C@H](C(=O)O)[C@H](N)C(=O)O
The experiment in a line: purified protein. It is filed as biochemical, Citrobacter amalonaticus. To be noted: Mg2+ catalytic pocket; pH 9.0; 30.0 °C.

Substrate in data set [4]: N[C@@H](CC(=O)O)C(=O)O
Description: purified protein. It is filed as biochemical, Clostridium tetanomorphum. The settings on record: Mg2+; pH 9.0; 30.0 °C.

Substrate in data set [5]: C[C@H](C(=O)O)[C@H](N)C(=O)O
The experiment in a line: purified protein. The settings on record: Mg2+; pH 9.0; 30.0 °C. It is filed as biochemical, Clostridium tetanomorphum.

Like-named read-outs stand apart in the source and are kept apart here.

By Ki is commonly meant a dissociation constant, usually derived from enzyme kinetics or from competition with a known ligand. In turn, `NCCC[C@H](N)CC(=O)O` [β-lysine] yielded an inhibition constant (Ki) in data set [1] of 1.7 ± 0.4 mM.
As for `NC(CC(=O)O)CC(=O)O` [β-glutamic acid], the Ki in data set [1] (read-out: Ki) was determined as 71 ± 3 mM.

B1: 3-methylaspartate ammonia lyase (ChMAL) (Carboxydothermus hydrogenoformans Z-2901) (protein)
chain: MRIKDVLFVKGSSGFYFDDQKAIKSGAVTDGFTYKGKPLTPGFSRVRQGGEAVSIMLFLENGEIAVGDCVAVQYSGVDGRDPVFLADNFIEVLEEEIKPRLVGYNLVRFREAARYFTNLTDKRGKRYHTALRYGLTQALLDAVAKINRTTMAEVIAEEYGLDLTLNPVPLFAQSGDDRYINADKMILKRVDVLPHGLFNHPAKTGEEGKNLTEYALWLKQRIKTLGDHDYLPVFHFDVYGTLGTVFNDNLDRIADYLARLEEKVAPHPLQIEGPVDLGSKERQIEGLKYLQEKLITLGSKVIIVADEWCNNLSDIKEFVDAGAGGMVQIKSPDLGGVNDIIEAVLYAKEKGTGAYLGGSCNETDVSAKITVHVGLATGPAQLLVKPGMGVDEGLTIMRNEMMRTLAILQRNKVTFQKKVG
notes: C-terminal His-tag
As usually defined, the Km is the concentration of substrate that gives half-maximal velocity. A word on the kcat: it is the maximal rate divided by the concentration of active sites. On to B1, for which, in the data set “purified protein [2]”, the Km turned out to be 1380 ± 170 µM and the catalytic constant (kcat) came out at 66 ± 2 s⁻¹.

B2: 3-methylaspartate ammonia lyase (CaMAL) (Citrobacter amalonaticus) (protein)
chain: MKIKQALFTAGYSSFYFDDQQAIKNGAGHDGFIYTGDPVTPGFTSVRQAGECVSVQLILENGAVAVGDCAAVQYSGAGGRDPLFLAEHFIPFLNDHIKPLLEGRDVDAFLPNARFFDKLRIDGNLLHTAVRYGLSQALLDATALASGRLKTEVVCDEWQLPCVPEAIPLFGQSGDDRYIAVDKMILKGVDVLPHALINNVEEKLGFKGEKLREYVRWLSDRILSLRSSPRYHPTLHIDVYGTIGLIFDMDPVRCAEYIASLEKEAQGLPLYIEGPVDAGNKPDQIRMLTAITKELTRLGSGVKIVADEWCNTYQDIVDFTDAGSCHMVQIKTPDLGGIHNIVDAVLYCNKHGMEAYQGGTCNETEISARTCVHVALAARPMRMLIKPGMGFDEGLNIVFNEMNRTIALLQTKD
notes: C-terminal His-tag
On to B2, for which, in the data set “purified protein [3]”, the Km is 1000 ± 60 µM and the kcat turned out to be 17.6 ± 0.3 s⁻¹.

B3: 3-methylaspartate ammonia lyase (CtMAL) (Clostridium tetanomorphum) (protein)
chain: MKIVDVLCTPGLTGFYFDDQRAIKKGAGHDGFTYTGSTVTEGFTQVRQKGESISVLLVLEDGQVAHGDCAAVQYSGAGGRDPLFLAKDFIPVIEKEIAPKLIGREITNFKPMAEEFDKMTVNGNRLHTAIRYGITQAILDAVAKTRKVTMAEVIRDEYNPGAEINAVPVFAQSGDDRYDNVDKMIIKEADVLPHALINNVEEKLGLKGEKLLEYVKWLRDRIIKLRVREDYAPIFHIDVYGTIGAAFDVDIKAMADYIQTLAEAAKPFHLRIEGPMDVEDRQKQMEAMRDLRAELDGRGVDAELVADEWCNTVEDVKFFTDNKAGHMVQIKTPDLGGVNNIADAIMYCKANGMGAYCGGTCNETNRSAEVTTNIGMACGARQVLAKPGMGVDEGMMIVKNEMNRVLALVGRRK
notes: C-terminal His-tag
For B3, in “purified protein [4]”, the Michaelis constant (Km) was found to be 67000 ± 6000 µM and the catalytic constant (kcat) was determined as 1.6 ± 0.1 s⁻¹. Also, in “purified protein [5]”, the Km came to 3990 ± 610 µM and the kcat worked out at 7.6 ± 0.4 s⁻¹.
